Assay results reported in US20180346544A1.

Biological target: CD276.MG.BB.z CAR (SEQ ID NO: 12)
Assay: flow cytometry, Protein L staining of T cells cultured with CD276.MG.BB.z vector supernatant; the mock-transduced panel gives 2.56

CD276.MG.BB.z CAR (SEQ ID NO: 12), sequence (chain, as listed by the source, form in doubt): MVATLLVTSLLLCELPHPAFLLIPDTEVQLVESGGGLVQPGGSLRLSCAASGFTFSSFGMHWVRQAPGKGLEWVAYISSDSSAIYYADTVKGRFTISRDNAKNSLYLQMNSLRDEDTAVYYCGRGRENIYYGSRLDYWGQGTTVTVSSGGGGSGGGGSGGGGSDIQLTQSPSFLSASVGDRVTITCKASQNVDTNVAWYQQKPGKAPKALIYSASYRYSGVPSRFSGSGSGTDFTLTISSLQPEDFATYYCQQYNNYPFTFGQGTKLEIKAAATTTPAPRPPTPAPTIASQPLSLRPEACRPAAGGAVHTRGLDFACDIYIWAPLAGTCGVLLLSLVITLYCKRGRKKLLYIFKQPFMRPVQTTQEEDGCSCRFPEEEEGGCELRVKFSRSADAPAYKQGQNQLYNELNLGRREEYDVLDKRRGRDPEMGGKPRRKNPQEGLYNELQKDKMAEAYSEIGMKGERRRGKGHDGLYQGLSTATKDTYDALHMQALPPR

Work on Protein L yielded a value of the horizontal bar in the flow cytometric histogram (Protein L staining) of 54.7.
